Patent US20230312739A1 (BIOTHEUS, published 2023)

Experiments:
[1] = biological target: T1, human CD73 on the cell surface (tumor cells endogenously expressing human CD73; CHOS-human CD73) (human, UniProt P21589 27-549); assay: cell binding on adherent CHOS-human CD73 cells, DyLight488 goat anti-mouse IgG, full-field cell scanning analyzer (Celigo), % fluorescent cells
T1 construct: The endogenous CD73 of the human tumor lines (MDA-MB-231, Calu6, SK-ME-S, H2030, SKLU1, BT549, A375, HCC44) is treated as the same protein
T1 sequence: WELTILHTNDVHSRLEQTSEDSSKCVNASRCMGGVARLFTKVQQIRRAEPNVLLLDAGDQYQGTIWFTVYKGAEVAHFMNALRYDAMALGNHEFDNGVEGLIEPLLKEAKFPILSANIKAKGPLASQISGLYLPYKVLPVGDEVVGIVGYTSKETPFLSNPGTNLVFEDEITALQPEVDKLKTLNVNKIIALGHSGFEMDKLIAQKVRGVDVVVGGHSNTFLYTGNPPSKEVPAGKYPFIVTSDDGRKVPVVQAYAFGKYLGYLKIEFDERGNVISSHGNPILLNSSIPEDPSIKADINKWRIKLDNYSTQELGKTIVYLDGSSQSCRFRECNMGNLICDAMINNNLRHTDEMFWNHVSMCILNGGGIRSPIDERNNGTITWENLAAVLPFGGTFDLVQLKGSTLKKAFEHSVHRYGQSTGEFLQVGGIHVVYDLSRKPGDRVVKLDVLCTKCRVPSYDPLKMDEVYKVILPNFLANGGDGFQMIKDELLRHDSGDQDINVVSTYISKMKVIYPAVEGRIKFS
Description: (§1) Experimental method: 10,000 cells were plated on a flat-bottom 96-well plate with 100 μL DMEM+10% FBS/well, cultured overnight so that the cells adhered to the well, and the supernatant was discarded on the next day. Serial 3-fold dilutions of antibody for 8 points were performed by diluting ⅓ of the total volume (100 μL) in 200 μL DMEM. 100 μL of the diluted antibody was added to each well of the cell plate (the supernatants of fused clones or subclones were used for screening), 100 μL of DMEM was added to the corresponding negative control well, and incubation was performed at room temperature for 1 hour. After the supernatant was discarded, 100 μL of secondary antibody (DyLight488 goat anti-mouse IgG (Abcam, Cat. No. ab97015)) was added to each well at a concentration of 5 μg/mL (diluted in DMEM), and incubation was performed for 0.5 hours at room temperature. After staining, the supernatant was discarded, followed by washing once with PBS+2% FBS, then 100 μL of PBS+2% FBS was added to each well, and then reading was performed on analyzer. A full-field cell scanning analyzer (Nexcelom Company, model Celigo® Image Cytometer) was used to measure the reading of the experimental plate. […] The binding effect of the anti-CD73 antibody to the CD73-expressing cell line was determined according to the percentage. […]

[2] = biological target: T1, human CD73 on the cell surface (tumor …); assay: full-field cell scanning analyzer (Celigo), percent fluorescent cells, MDA-MB-231 cells endogenously expressing human CD73
Description: as §1

[3] = biological target: T1, human CD73 on the cell surface (tumor …); assay: full-field cell scanning analyzer (Celigo), percent fluorescent cells, A375 cells endogenously expressing human CD73
Description: as §1

[4] = biological target: T2, CD73 on cynomolgus macaques CD3+CD8+ T cells (cynomolgus macaques, UniProt A0A2K5V5U7 27-549); assay: flow cytometry on cynomolgus macaque PBMC, CD3+CD8+ T cells, donor 1300M
T2 construct: whole, on cells; also called cynomolgus macaques T cells; cynomolgus macaques PBMC
T2 sequence: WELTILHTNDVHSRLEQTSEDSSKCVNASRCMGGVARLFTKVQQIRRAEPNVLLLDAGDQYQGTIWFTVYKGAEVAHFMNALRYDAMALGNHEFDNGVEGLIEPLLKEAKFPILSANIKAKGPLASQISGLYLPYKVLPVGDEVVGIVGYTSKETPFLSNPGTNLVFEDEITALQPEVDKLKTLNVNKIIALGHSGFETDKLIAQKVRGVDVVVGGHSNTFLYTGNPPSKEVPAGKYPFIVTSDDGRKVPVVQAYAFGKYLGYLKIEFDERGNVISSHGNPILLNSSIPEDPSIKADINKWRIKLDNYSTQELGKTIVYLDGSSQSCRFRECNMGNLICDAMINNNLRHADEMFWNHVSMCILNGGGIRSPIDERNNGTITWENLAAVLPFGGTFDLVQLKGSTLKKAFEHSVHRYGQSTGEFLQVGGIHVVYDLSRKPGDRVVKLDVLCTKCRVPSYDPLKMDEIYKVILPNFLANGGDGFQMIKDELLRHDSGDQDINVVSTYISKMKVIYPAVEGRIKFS
Description: (§2) Monkey blood samples from two donors (1132F and 1300M) were obtained from Medicilon. Peripheral blood mononuclear cells (PBMCs) were isolated using a Ficoll density gradient centrifugation system. The PBMCs were incubated with the antibody to be tested, then the antibodies bound on the cells were stained with fluorochrome-labeled secondary antibodies (DyLight488 goat anti-mouse IgG, Abcam Cat. No. ab97015; DyLight488 goat anti-human IgG, Abcam Cat. No. ab97003), and the fluorochrome-labeled antibodies against CD3+ and CD8+ were used to recognize T cells. Together with the unstained control samples and the fluorescence compensation control samples, all the samples were run on a flow cytometer to detect the binding of the antibodies to cynomolgus macaques T cells.

[5] = biological target: T1, human CD73 on the cell surface (tumor …); assay: full-field cell scanning analyzer (Celigo), percent fluorescent cells, Calu6 cells endogenously expressing human CD73
Description: as §1

[6] = biological target: T2, CD73 on cynomolgus macaques CD3+CD8+ T …; assay: flow cytometry on cynomolgus macaque PBMC, CD3+CD8+ T cells, donor 1132F
Description: as §2

B1: murine antibody 13D12 (antibody, V domains shown)
VH: DVKLQESGPAMVKPSQSLSLTCTVTGYSITSGYDWHWIRLFPGNKLEWMGYISYSGYTDYSPSLKSRISITHDTSKNHFFLKLHSVTTEDTATYYCTRGDHSYAMDYWGQGTSVTVS
VL: DIVMTQSHKFMSTSVGDRVSITCKASQAVGTAVAWYQQKPGQSPKLLIYWASSRHTGVPDRFTGSRSGTDFTLTISSVQSEDLADYFCQQYSSYPLTFGGGTNLEIK
notes: Mouse monoclonal antibody purified from hybridoma supernatant; also called mouse monoclonal antibody 13D12
Question: B1 was tested. Which “EC50 (read off the curve)” value [1] did it give?
Answer: ~0.06 µg/mL

Question: And the EC50 [2]?
Answer: 0.9 µg/mL

Question: And the EC50 [3]?
Answer: 2.43 µg/mL

Question: What about the “MFI FC (fold change of mean fluorescence intensity)” value [4] of the same binder?
Answer: 2.8 fold

Question: And the EC50 [5]?
Answer: 0.47 µg/mL

Question: What about the “MFI FC (fold change of mean fluorescence intensity)” value [6] of the same binder?
Answer: 5 fold
